Results on seven molecules are retold here after patent CN115028722A (BIOCELLS BEIJING BIOTECH CO LTD, dated 2022).

Assay [1] has as its target T1, 包含有His标签的重组人源TSLP蛋白(rhTSLP-His) (human).
T1 construct: also called rhTSLP-His重组蛋白; rhTSLP-His蛋白
In words: ELISA as in Example 6, rhTSLP-His coated. For orientation: In an ELISA, binding on a coated surface is turned into a signal by an enzyme label.

The target of assay [2] is T1, 包含有His标签的重组人源TSLP蛋白(rhTSLP-His). In words: cell ELISA: antibody blocks binding of rhTSLP-His to hTSLPR/hIL-7Rα-293T/17 cells.
Assay [3] shares this target. In words: ELISA, rhTSLP-His coated at 100 ng/well.
Assay [4] has the same target. The assay is described as follows: cell ELISA: antibody blocks binding of 100 ng rhTSLP-His to hTSLPR/hIL-7Rα-293T/17 cells.

B1: 抗TSLP人源化单克隆抗体M432-69H13L (antibody, human IgG2, lambda, V domains shown)
VH: EVQLVQSGAEVKKPGATVKISCCASAYSFTTYWMHWVQQAPGKGLEWMGLIDPSDSETTLNQKFKDRVTLTVDKSTDTAYMELSSLRSEDTAVYYCARSLDGYFDYWGQGTTVTVSS
VL: DIQLTQSPSSLSASVGDRVTITCRAGENIYSYLAWYQQKPGKAPKLLVYNAKILAEGVPSRFSGSGSGTDFTLTISSLQPEDFATYYCQHHYDTPWTFGGGTKLTVLG
What is called EC50 is the concentration needed to bring the measured effect to its halfway point. As usually defined, the IC50 is the concentration at which inhibition is half-maximal. Low readings indicate greater potency in that assay, high ones weaker potency in that assay. As to B1, the EC50 in assay [1] turned out to be 4.05 nM. This molecule came in with an IC50 in assay [2] of 4.35 µg/mL.

B2: 抗TSLP人源化单克隆抗体9F8-46H13L (antibody, human IgG2, lambda, V domains shown)
VH: QVQLVQSGAEVKKPGASVKVSCCASGYSFTTYWMHWVRQAPGQGLEWMGIIDPSDSETTLNQKFKDRVTLTVDKSTSTAYMELSSLRSEDTAVYYCTRSLDGYFDYWGQGTTVTVSS
VL: DIQLTQSPSSLSASVGDRVTITCRAGENIYSYLAWYQQKPGKAPKLLVYNAKILAEGVPSRFSGSGSGTDFTLTISSLQPEDFATYYCQHHYDTPWTFGGGTKLTVLG
Turning to B2, in assay [1], a half-maximal effect (EC50) was put at 9.52 nM. Besides, in assay [2], the IC50 worked out at 4.05 µg/mL.

B3: 抗TSLP人源化单克隆抗体5F10-69H13L (antibody, human IgG2, lambda, V domains shown)
VH: EVQLVQSGAEVKKPGATVKISCCASGYSFTSYWMHWVQQAPGKGLEWMGLIDPTDSEISLSQKFKDRVTLTVDKSTDTAYMELSSLRSEDTAVYYCARSLDGFFDQWGQGTTVTVSS
VL: DIQLTQSPSSLSASVGDRVTITCRAGENIYSYLAWYQQKPGKAPKLLVYNAKILAEGVPSRFSGSGSGTDFTLTISSLQPEDFATYYCQHHYDTPWTFGGGTKLTVLG
B3 gave a half-maximal effective concentration (EC50) in assay [1] of 31.6 nM. Also, the IC50 in assay [2] turned out to be 7.57 µg/mL.

B4: 鼠源抗TSLP单克隆抗体10D9-M-432 (antibody, V domains shown)
VH: VNCKESGPQLVRPGASVKISCKASAYSFTTYWMHWVKQRPGQGLEWIGLIDPSDSETTLNQKFKDKATLTVDKSSSTAYMQLTSPTSEDSAVYYCARSLDGYFDYWGQGTTVTVSS
VL: DIDLTQSPASLSASVGETVTITCRAGENIYSYLAWYQQKQGKSPQLLVYNAKILAESVPSRFSGSGSGTQFSLKINSLQPEDFGIYSCQHHYDTPWTFGGGTKLE
notes: Mouse hybridoma monoclonal antibody
For B4, a half-maximal response in assay [3] (EC50) required 8.16 nM. In addition, the concentration for half-maximal inhibition (IC50) in assay [4] came out at 12 µg/mL.

B5: 鼠源抗TSLP单克隆抗体9F8-1-25 (antibody, V domains shown)
VH: VQLQQSGPQLVRPGASVKISCKASGYSFTTYWMHWVKQRPGQGLEWIGIIDPSDSETTLNQKFKDKATLTVDKSSSTAYIQLSSPTSEDSAVYYCTRSLDGYFDYWGQGTTVTV
VL: DIDLTQSPASLSASVGETVTITCRAGENIYSYLAWYQQKQGKSPQLLVYNAKILAESVPSRFSGSGSGTQFSLKINSLQPEDFGIYSCQHHYDTPWTFGGGTKLE
notes: as for B4
B5 came in with an EC50 in assay [3] of 11.4 nM. The molecule also returned an IC50 in assay [4] of 10.7 µg/mL.

B6: Tezepelumab(安进和阿斯利康合作开发抗体) (antibody, V domains shown)
VH: QMQLVESGGGVVQPGRSLRLSCAASGFTFRTYGMHWVRQAPGKGLEWVAVIWYDGSNKHYADSVKGRFTITRDNSKNTLNLQMNSLRAEDTAVYYCARAPQWELVHEAFDIWGQGTMVTVSS
VL: SYVLTQPPSVSVAPGQTARITCGGNNLGSKSVHWYQQKPGQAPVLVVYDDSDRPSWIPERFSGSNSGNTATLTISRGEAGDEADYYCQVWDSSSDHVVFGGGTKLTVLG
Consider B6, for which the results for the EC50 in assay [3] and in assay [1] were 2.93 nM and 1.8 nM, respectively. Also, the IC50 turned out to be 8.93 µg/mL in assay [2] and 6.22 µg/mL in assay [4].

B7: 鼠源抗TSLP单克隆抗体5F10-2-25 (antibody, V domains shown)
VH: ELQQSGPQLVRPGASVKISCKASGYSFTSYWMHWVKQRPGQGLEWIGLIDPTDSEISLSQKFKDKATLTVDKLSSTAHMQLSSPTSEDSAVYYCARSLDGFFDQWGQGTTVTV
VL: DIDLTQSPASLSASVGETVTITCRTSENIYSYLAWYQQKQGKSPQLLVYNAKSLAEGVPSRFSGSGSGTQFSLKINSLQPEDFGSYYCQHHYDTPWTFGGGTKLENKT
notes: as for B4
Consider B7, for which the EC50 in assay [3] is 12.4 nM. The molecule also had a 50% inhibitory concentration (IC50) in assay [4] of 13.4 µg/mL.
